Target: human NEK7 recombinant protein (HY-P75935, MCE) (human, UniProt Q8TDX7 1-302, RED-NHS dye label (in the MST only))
Experiment: MST

human NEK7 recombinant protein (HY-P75935, MCE), sequence (Q8TDX7 whole entry, one chain of several): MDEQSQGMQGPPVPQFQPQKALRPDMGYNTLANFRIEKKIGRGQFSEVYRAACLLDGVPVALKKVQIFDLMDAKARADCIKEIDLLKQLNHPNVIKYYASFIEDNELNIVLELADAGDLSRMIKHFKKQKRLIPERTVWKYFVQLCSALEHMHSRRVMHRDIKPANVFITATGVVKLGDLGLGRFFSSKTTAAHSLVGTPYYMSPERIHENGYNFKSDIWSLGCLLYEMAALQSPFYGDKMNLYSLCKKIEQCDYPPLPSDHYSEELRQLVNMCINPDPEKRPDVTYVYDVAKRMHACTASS

B1: human SDHB recombinant protein (Ag29868, Proteintech) (natural protein)
chain: AQTAAATAPRIKKFAIYRWDPDKAGDKPHMQTYEVDLNKCGPMVLDALIKIKNEVDSTLTFRRSCREGICGSCAMNINGGNTLACTRRIDTNLNKVSKIYPLPHMYVIKDLVPDLSNFYAQYKSIEPYLKKKDESQEGKQQYLQSIEEREKLDGLYECILCACCSTSCPSYWWNGDKYLGPAVLMQAYRWMIDSRDDFTEERLAKLQDPFSLYRCHTIMNCTRTCPKGLNPGKAIAEIKKMMATYKEKKASV
Kd: 19.5 µM

Reference: paper PMC12663309 (2025)
